According to patent US20040110131A1:

Molecular target: TGFβ in media conditioned by B16F10 melanoma cells (murine (produced by murine B16F10 cells))
Test: cell-based or functional assay

| Substance | level of active TGFβ as percent of total TGFβ (MLEC PAI-1 promoter luciferase assay) (% of total TGFβ) |
| --- | --- |
| TSR2 recombinant protein (second type 1 repeat of human TSP-1 without the DKRFK sequence, amino acids 416-473) | 4.8 |
| TSR2+RFK recombinant protein (second type 1 repeat of human TSP-1 with the RFK sequence, amino acids 411-473) | 30 |
